First the molecules themselves.
B1: TPR t1 (parent)
chain: GACCAAUCUGCCCUCAGAGCUCGAGAACAUCUUCGGAUGCAGAGGAGGCAGGCUUCGGUGGCGCGAUAGCGCCAACGUCCUCAACCUCCAAUGCAUCCCACCACAUGAUGAUGCCUGAAGAGCCUUGGUUUUUUG

Variants of B1 are the subject of this data set. The experiment in a line: polymerase ribozyme fitness, log enrichment relative to wild type (log ratio); higher = more active; in vitro selection for triplet polymerase activity. In a few lines:
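A single round of triplicate in vitro selection, including frozen incubation at −7 °C, was applied to PCR-built, transcribed mutant libraries of each subunit of a heterodimeric triplet polymerase ribozyme. Illumina sequencing of input and output libraries retained genotypes with ≥10 input reads and ≥1 read per output. Fitness is the base-2 logarithm of genotype enrichment divided by wild-type enrichment, from inverse-variance-weighted replicate averages.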
In the case of U9A C13U G63A C88A G113C U129G U134G, the “polymerase ribozyme fitness (log ratio)” value was -3.06.
On to U9G C20A C22U C86U, for which the “polymerase ribozyme fitness (log ratio)” value is -4.49.
Turning to U9G G17A C56U A83U C89A C101A, the “polymerase ribozyme fitness (log ratio)” value was -4.6.
Under G10A C70G U87A C123A stands -4.27; under U9G C15A C70G A111U G117C, -5.91.
The figure for U9C G52A C89A G117A is -1.63.
The figure for G10C C15U is -0.996.
On to G10A G63A C86U, for which the “polymerase ribozyme fitness (log ratio)” value is -1.07.
The figure for U9C C62U C102U is -1.87.
Take U9G C102U G135U: the “polymerase ribozyme fitness (log ratio)” value is -2.17.
Under U9C A41U C70A U125A stands -4.15; under U9G G19U G44A G58C C64U A74G, -4.3.
Under U9G G52U C70G G122A stands -4.3.
Turning to U9G G39A, the “polymerase ribozyme fitness (log ratio)” value worked out at 0.968.
U9G A37U G39A G45U A46U C94G: the “polymerase ribozyme fitness (log ratio)” value was -5.9.
Under G10C G120U stands -1.23.
The figure for G10C A83U is -1.28; for U9G G45A G93U C114A it is -2.75.
As to U9G A18U C49A G93A G110C, the “polymerase ribozyme fitness (log ratio)” value is -5.65.
Under U9A G39C stands -0.517.
Turning to U9G C72U C94A G110A G113U A121G, the “polymerase ribozyme fitness (log ratio)” value is -6.14.
Under G10A U33C stands -4.02; under U9G A26C U54A U55A C88U G93A, -6.29.
Under G10A U21G G52A G69C U78G C115G U133G stands -7.23; under U9C C12U A16G C49G, 0.31.
The figure for U9A C80U C101U A111U U116A is -4.4; for G10A G44U U54C G63A C70A U130C it is -4.01.
Take U9C G42C C53A U55C U130G: the “polymerase ribozyme fitness (log ratio)” value is -1.45.
Under G10A C20U stands -1.18.
Under U9G G10U C12G A111G stands 0.61; under U9G U38A G47C C49A, -3.06; under U9G A27C C98U, -4.04.
Under G10A C49A G93U U112G stands -1.97; under G10U A26U G45A, -2.84.
Turning to U9G C12G U33A G42A C72G G93A G110U U116A, the “polymerase ribozyme fitness (log ratio)” value was -7.22.
G10U A37U G52U C56U C73G U116G: the “polymerase ribozyme fitness (log ratio)” value was -4.51.
Under U9A C13U C79U C114A stands 0.44.
The figure for U9G A16G C73G G110A U132A is -2.97; for U9A C13U U92A C101A it is -4.36; for U9A C73G it is -0.255.
Regarding U9A U78A, the “polymerase ribozyme fitness (log ratio)” value was -0.206.
Under G10C G42A G63U A91C G113A G122U stands -4.47; under U9C U21A C49G C101A, -1.26.
Under U9C G47U C49U U129A stands -3.07; under U9A C20G U96G C124U, -3.29; under U9C C40G C101U, -0.436.
Under U9C A37C C94U G110A stands -1.17; under U9G U55A, -0.0521; under U9A C56U, 0.248.
As for U9A C56A, the “polymerase ribozyme fitness (log ratio)” value stood at 0.00188.
Under U9G U87C stands -0.367; under U9G U87G, 0.583; under G10A C13A C49G A84C, -0.63.
The figure for G10U A95U G128A is -3.44.
Turning to G10A C53A, the “polymerase ribozyme fitness (log ratio)” value is -0.00777.
For the variant U9G G48U C49U G69U G120U, the “polymerase ribozyme fitness (log ratio)” value worked out at 0.977.
The figure for U9G U59G C88A A118U is 0.424; for G10A G71A A83C U106A A108U it is -1.78.
The figure for U9A G44A G69A C72U U87C is -3.54.
Under U9G G10U stands 0.261; under U9G G10C, 0.723; under U9C C85G, -1.02.
On to U9C C34U C56G G77A U106A G113A A121G, for which the “polymerase ribozyme fitness (log ratio)” value was -3.53.
Take G10C C20A G39C A46C: the “polymerase ribozyme fitness (log ratio)” value was -5.66.
The figure for G10U A90G is -0.702; for G10U it is -0.124; for G10C it is -0.497.
Under G10A stands 0.148; under U9G G71U C88A C115A, -2.67.
As to U9C C40U U112G, the “polymerase ribozyme fitness (log ratio)” value came out at 0.239.
The figure for G10C G77U A111U is -4.57.
Under G10A C15U G17A A41U C72U A105U G120A G122A stands -5.83.
The figure for U9G G117A is 0.595; for G10C U59G C88A C104A it is -3.65; for G10U A37U G52A G77C G120U it is 0.713.
Turning to U9C G48U G52C G117U, the “polymerase ribozyme fitness (log ratio)” value was -2.68.
On to G10U A75U G77A C86A, for which the “polymerase ribozyme fitness (log ratio)” value was -1.69.
Take G10A G120U G135C: the “polymerase ribozyme fitness (log ratio)” value amounted to 1.62.
In the case of U9A G58A G61A C85A G113A, the “polymerase ribozyme fitness (log ratio)” value is -0.721.
Under U9A A90U U96C U106A G128C stands -5.11; under U9C C31U C56A A103U G120U, -6.8.
For the variant U9G C11U C53U U81A, the “polymerase ribozyme fitness (log ratio)” value was -0.54.
For the variant G10A U14A C56G, the “polymerase ribozyme fitness (log ratio)” value is -3.83.
The figure for U9A C22U is -3.34.
